From patent US20220056091A1 (BRIGHT PEAK THERAPEUTICS, published 2022)

Columns and labels:
Experiment in all cases: cell-based or functional assay
[1] = molecular target: T1, IL-18 polypeptide of SEQ ID NO: 1 (native sequence, human IL-18 37-193) (human, UniProt Q14116 37-193)
T1 sequence: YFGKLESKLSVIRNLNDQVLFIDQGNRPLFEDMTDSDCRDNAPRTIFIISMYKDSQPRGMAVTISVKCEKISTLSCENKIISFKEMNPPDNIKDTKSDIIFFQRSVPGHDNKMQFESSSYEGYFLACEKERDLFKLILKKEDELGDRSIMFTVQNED

[2] = molecular target: Modified IL-18 polypeptide of SEQ ID NO: 19 (T63A) (human, UniProt Q14116 37-193)
[3] = molecular target: T2, Modified IL-18 polypeptide of SEQ ID NO: 23 (K53A, T63A, C38S, C68S, C76S, C127S, K70C) (human, UniProt Q14116 37-193)
T2 chain: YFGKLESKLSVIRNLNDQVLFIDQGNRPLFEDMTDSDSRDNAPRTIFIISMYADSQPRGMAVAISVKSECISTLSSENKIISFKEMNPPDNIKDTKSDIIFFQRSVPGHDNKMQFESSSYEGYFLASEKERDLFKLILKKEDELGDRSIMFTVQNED

[4] = molecular target: Modified IL-18 polypeptide of SEQ ID NO: 20 (E06K, T63A) (human, UniProt Q14116 37-193)
[5] = molecular target: Modified IL-18 polypeptide of SEQ ID NO: 5 (S55A) (human, UniProt Q14116 37-193)
[6] = molecular target: T3, Modified IL-18 polypeptide of SEQ ID NO: 3 (Y01G, F02A, E06K, M51G, K53A, D54A, S55A, T63A) (human, UniProt Q14116 37-193)
T3 chain: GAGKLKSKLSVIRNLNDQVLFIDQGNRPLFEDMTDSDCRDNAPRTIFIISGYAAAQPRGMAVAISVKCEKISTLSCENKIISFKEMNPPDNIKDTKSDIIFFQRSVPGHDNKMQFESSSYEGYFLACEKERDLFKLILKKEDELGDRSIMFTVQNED

[7] = molecular target: T4, Modified IL-18 polypeptide of SEQ ID NO: 18 (E06K, K53A, T63A) (human, UniProt Q14116 37-193)
T4 chain: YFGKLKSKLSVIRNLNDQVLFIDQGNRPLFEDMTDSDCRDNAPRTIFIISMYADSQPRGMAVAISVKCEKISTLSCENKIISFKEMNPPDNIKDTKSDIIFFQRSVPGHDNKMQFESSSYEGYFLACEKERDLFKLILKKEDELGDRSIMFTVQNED

B1: Fc fused human IL-18BP isoform a (IL-18BPa) (Fc fusion, UniProt O95998 31-194, looked up, not shown: a dimerising Fc or GST)
chain: TPVSQTTTAATASVRSTKDPCPSQPPVFPAAKQCPALEVTWPEVEVPLNGTLSLSCVACSRFPNFSILYWLGNGSFIEHLPGRLWEGSTSRERGSTGTQLCKALVLEQLTPALHSTNFSCVLVDPEQVVQRHVVLAQLWAGLRATLPPTQEALPSSHSSPQQQG
- IC50 (read off the curve); IFNγ production by NK-92 cells stimulated with IL-18 WT [1]: ~1 nM
- IC50 (nM), IL-18BPa inhibition of IFNγ release by NK-92 cells (1 nM IL-18 analyte) [2]: 0.239 nM
- IC50 (nM), IL-18BPa inhibition of IFNγ release by NK-92 cells (1 nM IL-18 analyte) [3]: > 1000 nM
- IC50 (nM), IL-18BPa inhibition of IFNγ release by NK-92 cells (1 nM IL-18 analyte) [4]: 47.1 nM
- IC50 (nM), IL-18BPa inhibition of IFNγ release by NK-92 cells (1 nM IL-18 analyte) [5]: 4.46 nM
- IC50 (nM), IL-18BPa inhibition of IFNγ release by NK-92 cells (1 nM IL-18 analyte) [6]: > 55 nM
- IC50 (nM), IL-18BPa inhibition of IFNγ release by NK-92 cells (1 nM IL-18 analyte) [7]: > 1000 nM
